Experimental data from patent US20100196266A1 (published 2010).

Columns and labels:
[1] = target: T1, human CD22 on cells (human, UniProt P20273 20-847); assay: indirect FACS, FITC-GAH Fc, SU-DHL-6 cells; none 4.6
T1 construct: whole, on cells

[2] = target: T1, human CD22 on cells; assay: indirect FACS, FITC-GAH Fc, WSU-FSCCL cells; none 2.6
[3] = target: T1, human CD22 on cells; assay: indirect flow cytometry, FITC-GAH Fc, SU-DHL-6 cells; none 4.6
[4] = target: T1, human CD22 on cells; assay: indirect FACS, FITC-GAH Fc, Namalwa cells; none 2.5
[5] = target: T1, human CD22 on cells; assay: indirect flow cytometry, Namalwa cells, FITC-GAH; none 2.52
[6] = target: T2, human CD74 on cells (human, UniProt P04233 1-296); assay: indirect FACS, FITC-GAH Fc, SU-DHL-6 cells; none 4.6
T2 construct: whole, on cells
T2 sequence (looked up): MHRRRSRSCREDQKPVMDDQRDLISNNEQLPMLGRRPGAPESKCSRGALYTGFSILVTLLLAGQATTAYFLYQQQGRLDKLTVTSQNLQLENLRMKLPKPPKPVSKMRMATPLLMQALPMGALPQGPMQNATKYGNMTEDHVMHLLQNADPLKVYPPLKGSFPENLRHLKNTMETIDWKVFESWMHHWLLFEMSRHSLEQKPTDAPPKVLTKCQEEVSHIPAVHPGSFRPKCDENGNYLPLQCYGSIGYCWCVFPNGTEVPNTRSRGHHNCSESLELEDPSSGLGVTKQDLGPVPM

[7] = target: T2, human CD74 on cells; assay: indirect flow cytometry, FITC-GAH Fc, Raji cells; none 6.9
[8] = target: T2, human CD74 on cells; assay: indirect flow cytometry, FITC-GAH Fc, Namalwa cells; none 2.6
[9] = target: T2, human CD74 on cells; assay: indirect FACS, FITC-GAH Fc, Raji cells; none 6.8
[10] = target: T2, human CD74 on cells; assay: indirect FACS, FITC-GAH Fc, Ramos cells; none 3.1
[11] = target: T2, human CD74 on cells; assay: indirect FACS, FITC-GAH Fc, WSU-FSCCL cells; none 2.6
[12] = target: T2, human CD74 on cells; assay: indirect flow cytometry, FITC-GAH Fc, SU-DHL-6 cells; none 4.6
[13] = target: T2, human CD74 on cells; assay: indirect FACS, FITC-GAH Fc, Namalwa cells; none 2.5
[14] = target: T2, human CD74 on cells; assay: indirect flow cytometry, FITC-GAH Fc, RL cells; none 2.4
[15] = target: T2, human CD74 on cells; assay: indirect flow cytometry, Namalwa cells, FITC-GAH; none 2.52
[16] = target: T2, human CD74 on cells; assay: indirect flow cytometry, FITC-GAH Fc, WSU-FSCCL cells; none 2.7
[17] = target: T2, human CD74 on cells; assay: indirect flow cytometry, FITC-GAH Fc, Ramos cells; none 3.1
[18] = target: T2, human CD74 on cells; assay: indirect flow cytometry, FITC-GAH Fc, Daudi cells; none 3.2
[19] = target: T2, human CD74 on cells; assay: indirect FACS, FITC-GAH Fc, Daudi cells; none 3.1
[20] = target: T3, human CD20 on cells (human, UniProt P11836 1-297); assay: indirect FACS, FITC-GAH Fc, SU-DHL-6 cells; none 4.6
T3 construct: whole, on cells
T3 sequence (looked up): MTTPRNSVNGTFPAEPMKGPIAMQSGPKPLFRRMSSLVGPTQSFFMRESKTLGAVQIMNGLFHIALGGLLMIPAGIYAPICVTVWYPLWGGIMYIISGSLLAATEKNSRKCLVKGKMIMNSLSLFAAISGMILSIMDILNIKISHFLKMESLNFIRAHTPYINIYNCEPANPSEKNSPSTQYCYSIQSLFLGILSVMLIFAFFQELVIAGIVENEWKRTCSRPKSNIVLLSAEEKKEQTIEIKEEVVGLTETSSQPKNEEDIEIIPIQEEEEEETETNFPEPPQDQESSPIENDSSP

[21] = target: T3, human CD20 on cells; assay: indirect flow cytometry, FITC-GAH Fc, Raji cells; none 6.9
[22] = target: T3, human CD20 on cells; assay: indirect flow cytometry, FITC-GAH Fc, Namalwa cells; none 2.6
[23] = target: T3, human CD20 on cells; assay: indirect FACS, FITC-GAH Fc, Raji cells; none 6.8
[24] = target: T3, human CD20 on cells; assay: indirect FACS, FITC-GAH Fc, Ramos cells; none 3.1
[25] = target: T3, human CD20 on cells; assay: indirect FACS, FITC-GAH Fc, WSU-FSCCL cells; none 2.6
[26] = target: T3, human CD20 on cells; assay: indirect flow cytometry, FITC-GAH Fc, SU-DHL-6 cells; none 4.6
[27] = target: T3, human CD20 on cells; assay: indirect FACS, FITC-GAH Fc, Namalwa cells; none 2.5
[28] = target: T3, human CD20 on cells; assay: indirect flow cytometry, FITC-GAH Fc, RL cells; none 2.4
[29] = target: T3, human CD20 on cells; assay: indirect flow cytometry, Namalwa cells, FITC-GAH; none 2.52
[30] = target: T3, human CD20 on cells; assay: indirect flow cytometry, FITC-GAH Fc, WSU-FSCCL cells; none 2.7
[31] = target: T3, human CD20 on cells; assay: indirect flow cytometry, FITC-GAH Fc, Ramos cells; none 3.1
[32] = target: T3, human CD20 on cells; assay: indirect flow cytometry, FITC-GAH Fc, Daudi cells; none 3.2
[33] = target: T3, human CD20 on cells; assay: indirect FACS, FITC-GAH Fc, Daudi cells; none 3.1

B1: epratuzumab (hLL2, humanized anti-CD22 mAb) (antibody, V domains shown)
VH: QVQLVQSGAEVKKPGSSVKVSCKASGYTFTSYWLHWVRQAPGQGLEWIGYINPRNDYTEYNQNFKDKATITADESTNTAYMELSSLRSEDTAFYFCARRDITTFYWGQGTTVTVSS
VL: DIQLTQSPSSLSASVGDRVTMSCKSSQSVLYSANHKNYLAWYQQKPGKAPKLLIYWASTRESGVPSRFSGSGSGTDFTFTISSLQPEDIATYYCHQYLSSWTFGGGTKLEIK
B1 was tested, and the “Geometric Mean Fluorescence” value [1] was 11, the “Geometric Mean Fluorescence” value [2] was 4.1 and the “Geometric Mean Fluorescence” value [3] was 11. For the same binder, the “Geometric Mean Fluorescence” value [4] was 6.4 and the “GEO MEAN Fluorescence” value [5] was 6.76.

B2: milatuzumab (hLL1, humanized anti-CD74 mAb) (antibody, V domains shown)
VH: QVQLQQSGSELKKPGASVKVSCKASGYTFTNYGVNWIKQAPGQGLQWMGWINPNTGEPTFDDDFKGRFAFSLDTSVSTAYLQISSLKADDTAVYFCSRSRGKNEAWFAYWGQGTLVTVSS
VL: DIQLTQSPLSLPVTLGQPASISCRSSQSLVHRNGNTYLHWFQQRPGQSPRLLIYTVSNRFSGVPDRFSGSGSGTDFTLKISRVEAEDVGVYFCSQSSHVPPTFGAGTRLEIK
With B2 the “Geometric Mean Fluorescence” value [6] was 17.3, the “Geometric Mean Fluorescence” value [7] was 95.1 and the “Geometric Mean Fluorescence” value [8] was 7.8. The “Geometric Mean Fluorescence” value [9] was 95.1, the “Geometric Mean Fluorescence” value [10] was 23.2 and the “Geometric Mean Fluorescence” value [11] was 8.66. The “Geometric Mean Fluorescence” value [12] was 17.3, the “Geometric Mean Fluorescence” value [13] was 7.81 and the “Geometric Mean Fluorescence” value [14] was 7.9. The “GEO MEAN Fluorescence” value [15] was 10.1, the “Geometric Mean Fluorescence” value [16] was 8.7 and the “Geometric Mean Fluorescence” value [17] was 23.3. The “Geometric Mean Fluorescence” value [18] was 48.8 and the “Geometric Mean Fluorescence” value [19] was 48.8.

B3: veltuzumab (hA20, humanized anti-CD20 mAb) (antibody, V domains shown)
VH: QVQLQQSGAEVKKPGSSVKVSCKASGYTFTSYNMHWVKQAPGQGLEWIGAIYPGMGDTSYNQKFKGKATLTADESTNTAYMELSSLRSEDTAFYYCARSTYYGGDWYFDVWGQGTTVTVSS
VL: DIQLTQSPSSLSASVGDRVTMTCRASSSVSYIHWFQQKPGKAPKPWIYATSNLASGVPVRFSGSGSGTDYTFTISSLQPEDIATYYCQQWTSNPPTFGGGTKLEIK
For B3, the “Geometric Mean Fluorescence” value [20] was 1200, the “Geometric Mean Fluorescence” value [21] was 267 and the “Geometric Mean Fluorescence” value [22] was 10.1. The “Geometric Mean Fluorescence” value [23] was 267, the “Geometric Mean Fluorescence” value [24] was 204 and the “Geometric Mean Fluorescence” value [25] was 8.91. The “Geometric Mean Fluorescence” value [26] was 1200, the “Geometric Mean Fluorescence” value [27] was 10.1 and the “Geometric Mean Fluorescence” value [28] was 128. The “GEO MEAN Fluorescence” value [29] was 6.28, the “Geometric Mean Fluorescence” value [30] was 8.9 and the “Geometric Mean Fluorescence” value [31] was 204. For the same binder, the “Geometric Mean Fluorescence” value [32] was 241 and the “Geometric Mean Fluorescence” value [33] was 241.
